For the test, the target named is Parvulin 17 (human) (UniProt Q9Y237). The test can be described thus: NMR titration; substrate peptides added stepwise to 15N-labelled parvulin (300 μM, up to 3 mM peptide, 1:10); BEST-TROSY-HSQC at 20°C, 50 mM KPi buffer pH 6.7; microscopic (residue-specific) KD fitted with a 1:1 binding model.

Starred links: 1 amine or outer side, 2 acyl side, 3 side chain; linkers in the order of their positions; H or OH if unused. *: point of attachment. pNA = O=[N+]([O-])c1ccc(N*)cc1; Suc = O=C(CCC(=O)[*:2])[*:1]

Sequence of Parvulin 17 (human) (Q9Y237 other isoform, or with tags, fused parts or gaps): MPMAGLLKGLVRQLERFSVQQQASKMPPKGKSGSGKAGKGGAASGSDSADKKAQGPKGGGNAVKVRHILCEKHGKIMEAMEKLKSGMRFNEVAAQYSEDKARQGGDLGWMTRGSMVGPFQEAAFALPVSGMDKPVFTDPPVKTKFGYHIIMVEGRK

B1: Suc-Ala-Arg-Pro-Phe-pNA (peptide)
peptide: Suc-ARPF-pNA
SMILES: C[C@H](NC(=O)CCC(=O)O)C(=O)N[C@@H](CCCNC(=N)N)C(=O)N1CCC[C@H]1C(=O)N[C@@H](Cc1ccccc1)C(=O)Nc1ccc([N+](=O)[O-])cc1
Regarding B1, the microscopic (residue-specific) KD, V116 was 17 mM.

B2: Suc-Ala-Lys-Pro-Phe-pNA (peptide)
peptide: Suc-AKPF-pNA
SMILES: C[C@H](NC(=O)CCC(=O)O)C(=O)N[C@@H](CCCCN)C(=O)N1CCC[C@H]1C(=O)N[C@@H](Cc1ccccc1)C(=O)Nc1ccc([N+](=O)[O-])cc1
As to B2, the microscopic (residue-specific) KD, V116 was determined as 24 mM.
